Measurements as given in patent publication US20150299314A1 (TORAY INDUSTRIES, published 2015).

T1: CAPRIN-1 protein expressed on the cell surface of human cancer cells (human, UniProt Q14444 2-709)
T1 sequence (looked up): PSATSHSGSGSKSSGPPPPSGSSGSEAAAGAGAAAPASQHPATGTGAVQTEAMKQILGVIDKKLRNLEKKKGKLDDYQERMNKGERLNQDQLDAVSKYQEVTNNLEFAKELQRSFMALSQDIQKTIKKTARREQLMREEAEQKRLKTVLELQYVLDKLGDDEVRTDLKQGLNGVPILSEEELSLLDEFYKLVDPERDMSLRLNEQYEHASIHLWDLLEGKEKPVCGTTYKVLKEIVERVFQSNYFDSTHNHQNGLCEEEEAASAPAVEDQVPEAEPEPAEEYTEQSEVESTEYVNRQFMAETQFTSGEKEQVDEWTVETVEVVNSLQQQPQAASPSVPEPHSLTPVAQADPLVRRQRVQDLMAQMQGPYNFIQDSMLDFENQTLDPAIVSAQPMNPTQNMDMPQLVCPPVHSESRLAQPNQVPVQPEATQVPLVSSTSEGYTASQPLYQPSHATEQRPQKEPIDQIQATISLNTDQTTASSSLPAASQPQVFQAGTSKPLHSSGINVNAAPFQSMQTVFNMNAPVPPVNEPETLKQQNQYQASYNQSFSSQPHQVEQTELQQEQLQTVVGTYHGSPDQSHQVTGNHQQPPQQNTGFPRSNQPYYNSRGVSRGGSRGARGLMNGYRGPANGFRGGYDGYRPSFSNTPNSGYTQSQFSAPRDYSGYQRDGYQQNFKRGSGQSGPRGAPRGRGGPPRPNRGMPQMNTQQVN

B1: mouse monoclonal antibody #6 (antibody)
chain 1: DAELVKPGASVKISCKASGYTFTDHSIHWVQQKPEQGLEWIGYISPGNGNIKYNEKFKGKATLTADKSSSTAYMQLNSLTSEDSAVYFCKRSLGRGGPYYFDYWGQGTTVTVSS
chain 2: DIVLTQAAPSLPVTPGESVSISCRSSKSLLHSNGNTYLYWFLQRPGQSPQLLIYRMSNLASGVPDRFSGSGSGTAFTLRISRVEAEDVGVYYCMQHREYPVTFGSGPN
B2: mouse monoclonal antibody #18 (antibody, V domains shown)
VH: LQESGAELARPGASVKLSCKASGYTFTSYWMQWVKQRPGQGLEWIGAIYPGDGDTRYTQKFKGKATLTADKSSSTAYMQLSSLASEDSAVYYCARGEYGNYFAYWGQGTTVTVSS
VL: TSDASLGERVTITCKASQDINSYLSWFQQKPGKSPKTLIYRANRLVDGVPSRFSGSGSGQDYSLTISSLEYEDMGIYYCLQYDEFPLTFGGGTKLEIKQ
notes: mouse hybridoma antibody; also called anti-CAPRIN-1 mouse monoclonal antibody #18; anti-CAPRIN-1 monoclonal antibody #18
B3: mouse monoclonal antibody #14 (antibody, V domains shown)
VH: EVQLHQFGAELVKPGASVKISCKASGYTFTDYNMDWVKQSHGKSLEWIGDINPNYDSTSYNQKFKGKATLTVDKSSSTAYMELRSLTSEDTAVYYCARSRSYDYEGFAYWGQGTLVTVSA
VL: DIQLTQSPASLSASVGETVTITCRASGNIHNYLAWYQQKQGKSPQLLVYNAKTLADGVPSRFSGSGSGTQYSLKINSLQPEDFGSYYCQHFWSTLTFGGGTKLEIKQ
notes: mouse hybridoma antibody; also called anti-CAPRIN-1 mouse monoclonal antibody #14; anti-CAPRIN-1 monoclonal antibody #14
B4: mouse monoclonal antibody #15 (antibody, V domains shown)
VH: B3 VH
VL: SGDRVSLSCRASQSISNYLHWYQQKSHESPRLLIKYASQSISGIPSRFSGSGSGTDFTLSINSVETEDFGMYFCQQSNSWPYTFGAGTKLEIKQ
notes: mouse hybridoma antibody; also called anti-CAPRIN-1 mouse monoclonal antibody #15; anti-CAPRIN-1 monoclonal antibody #15
B5: mouse monoclonal antibody #3 (antibody, V domains shown)
VH: GGGLVKPGGSLKLSCAASGFTFSSYGMSWVRQTPEKRLEWVATISSGGSYTYYPDSVKGRFTISRDNAKNTLYLQMSSLRSEDTAMYYCASLASYYFDYWGQGTTLTVSS
VL: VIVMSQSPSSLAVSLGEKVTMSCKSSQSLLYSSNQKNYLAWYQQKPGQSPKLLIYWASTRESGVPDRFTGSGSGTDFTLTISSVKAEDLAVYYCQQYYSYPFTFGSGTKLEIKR
B6: mouse monoclonal antibody #13 (antibody, V domains shown)
VH: EVQLHQFGAELVKPGASVKISCKASGYTFTDYNMDWVKQSHGKSLEWIGDINPNYDSTSYNQKFKGKATLTVDKSSSTAYMELRSLTSEDTAVYYCARSRSYDYEGFAYWGQGTLVTVSAAKTTPPSVY
VL: AVLRCSRGLLVIWISDIQLTQSPSSLAVTAGEKVTMSCKSSQSLLWSVNQKNYLSWYQQKQRQPPKLLIYGASIRESWVPDRFTGSGSGTDFTLTISNVHAEDLAVYYCQHNHGSFLPSRSEQVPSWRSNNR
notes: mouse hybridoma antibody; also called anti-CAPRIN-1 mouse monoclonal antibody #13; anti-CAPRIN-1 monoclonal antibody #13

What was measured:
[1] = target: T1, CAPRIN-1 protein expressed on the cell …; experiment: cell-based or functional assay
[2] = target: T1, CAPRIN-1 protein expressed on the cell …; experiment: flow cytometry, TGBC14TKB cells, culture supernatant, isotype control antibody as control
Procedure: Subsequently, a gallbladder cell line TGBC14TKB, which was confirmed to express a CAPRIN-1 gene, was investigated for whether or not a CAPRIN-1 protein is expressed on the surfaces of these cells. 1×10⁶ cells of TGBC14TKB were centrifuged with a 1.5-mL micro centrifugation tube. To the cells was added the culture supernatant (100 μL) containing any of anti-CAPRIN-1 mouse monoclonal antibodies #1 to #22 reacting to cancer cell surface produced in Example 4 and anti-CAPRIN-1 mouse-chicken chimeric antibodies #1 to #3 produced in the above (2), followed by being left to stand on ice for 1 hour. After washing with PBS, the cells were suspended in a FITC-labeled goat anti-mouse IgG antibody (manufactured by life technologies) diluted by 500-fold with PBS containing 0.1% FBS, followed by being left to stand on ice for 1 hour. After washing with PBS, the fluorescence intensity was measured with FACS Calibur available from Becton, Dickinson and Company. Separately, as a control, the same procedure as in above was performed using an iso-type control antibody, instead of the culture supernatants containing the anti-CAPRIN-1 mouse monoclonal antibodies #1 to #22 and the mouse-chicken chimeric antibodies #1 to #3. As a result, the fluorescence intensity in the cells to which any of the monoclonal antibodies #1 to #22 and the mouse-chicken chimeric antibodies #1 to #3 was added was 20% or more higher than that in the control in every case. Specifically, in the case of using mouse-chicken chimeric antibody #1, the fluorescence intensity was enhanced by 200% or more. […] The rate of increase in the fluorescence intensity is represented by the rate of increase in the mean fluorescence intensity (MFI value) in each cell and is calculated by the following calculation formula: […]

Binder | cytotoxicity (ADCC, 51Cr release) on TGBC14TKB, human NK cells [1] | rate of increase in mean fluorescence intensity over control [2]
B1 | ≥ 15% | ≥ 20%
B2 | ≥ 15% | ≥ 20%
B3 | ≥ 15% | ≥ 20%
B4 | ≥ 15% | ≥ 20%
B5 | ≥ 15% | ≥ 20%
B6 | ≥ 15% | ≥ 20%
